In paper PMC4397963, “Phospho-Tyrosine(s) vs. Phosphatidylinositol Binding in Shc Mediated Integrin Signaling” (American journal of molecular biology, 2015):
Entries after “also recorded” stand apart in the source; their conditions may differ. One block for each molecule: values may come before it. Where no end group is shown, it is not given here. [ ]: non-standard residue; d: D form. pY = N[C@@H](Cc1ccc(OP(=O)(O)O)cc1)C(=O)O

Assays:
apo Shc PTB domain = assay: 15N-HSQC NMR titration of apo Shc PTB domain; assay type: binding; conditions: 15N-labelled apo PTB 100 – 200 μM, 50 mM Tris pH 7.5, 100 mM NaCl, 35°C; lipid to protein up to 15 to 1 (Ins(1,4,5)P3), 5 to 1 (PtdIns(4,5)P2)
Description: ^15N-labelled recombinant proteins were overexpressed in M9 medium supplemented with ^15NH4Cl as the sole nitrogen source. The same purification procedures as described above were followed. NMR samples of 100 – 200 μM were prepared in a buffer of 50 mM Tris, pH 7.5, 100 mM NaCl, 5 mM β-mercaptoethanol, 7% D2O, 1 mM 4,4-dimethyl-4-silapentane-1-sulfonic acid as the internal standard. ^15N-HSQC titration experiments were performed on a Varian/Agilent Inova 600 MHz spectrometer equipped with inverse-triple resonance cryo-probe at 35°C. All spectra were processed with NMRPipe and analyzed in CCPNmr Analysis software suite.
To find out the molecular details of these weak Shc-PtdIns interactions, we next employed NMR and performed ^15N-HSQC chemical shifts mapping experiments which are especially useful to define weak binding. […] Chemical shift perturbations, associated with the probes binding, were monitored. Overall, the observed shifts in Shc PTB resonance frequencies were small. However, they were concentration dependent, reproducible, and similar among the two PtdIns tested. […] The close-ups of 15N-HSQC spectra of PTB in the presence of PtdIns(4,5)P2, exemplifying the most shifted resonances, are shown in Figure 2. […] The first one, represented by the residues Q^148, S^149 and A^168, overlaps with the classical phosphotyrosine binding pocket of the protein-peptide binary complex. However, the canonical PTB fold cannot be formed without the stabilizing hydrophobic residue (pY-5) of the target peptide. Thus, in apo PTB domain Ins(1,4,5)P3 could only establish intermediate dynamic contacts with the amine functional groups of R^67 or Q^148 side chains. The second binding site, including the residues L^63, Q^76 and S^107, is formed at the interface of the second helix, the loop connecting the first beta strand with the second helix and the beginning of the second beta strand. This second PtdIns binding site is distinct from the second novel phosphotyrosine binding site we previously described for Shc PTB-bi-β3 complex, although it includes several overlapping residues. […]

full length Shc = conditions: ref [21], cited from earlier work
Description: Since their discovery about two decades ago, PTB domains have been identified and structurally characterized within numerous multi-domain proteins. The ways they interact with their targets are strikingly versatile. The phosphorylated tyrosine is not always required for the high affinity interactions, and, in some cases, the binding motif might not even contain the tyrosine residue at all. PTB domains in general are also famous for the significant variance in their ligand binding affinities, ranging from 0.1 to 100 μM [17]. […] We were greatly surprised that we were not able to reproduce the data reported by George and co-workers, who have reported a tight dissociation constant (Kd of 0.7 μM) for the full length Shc. […] The conditions we tested include: i) Shc PTB domain at 12°C and 25°C in several different buffers (including exactly th ...

[1] = target: T1, full length Shc (1 – 473) (Homo sapiens, UniProt P29353); assay: ITC binding to full length Shc; conditions: full length Shc, 12°C and 25°C
T1 construct: The vector of pET28a-full length Shc (1 – 473), generously provided by Dr. Ladbury; His-tag (N); made in house; host or cells: E. coli BL21 (DE3), pET28a (vector a gift from Dr. Ladbury)
T1 sequence (P29353 1-473 isoform P29353-2): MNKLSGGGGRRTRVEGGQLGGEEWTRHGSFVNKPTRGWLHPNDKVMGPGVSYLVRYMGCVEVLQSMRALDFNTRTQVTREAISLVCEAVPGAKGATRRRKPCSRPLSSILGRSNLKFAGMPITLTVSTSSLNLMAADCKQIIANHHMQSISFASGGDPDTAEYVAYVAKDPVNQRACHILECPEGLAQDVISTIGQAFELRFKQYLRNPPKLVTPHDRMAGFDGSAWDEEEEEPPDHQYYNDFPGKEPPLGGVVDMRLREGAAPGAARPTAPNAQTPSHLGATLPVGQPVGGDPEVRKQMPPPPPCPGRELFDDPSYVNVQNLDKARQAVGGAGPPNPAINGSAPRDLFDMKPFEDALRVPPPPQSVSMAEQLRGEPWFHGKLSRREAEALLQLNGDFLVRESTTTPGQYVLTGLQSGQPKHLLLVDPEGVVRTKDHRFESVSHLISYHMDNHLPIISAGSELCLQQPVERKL
Description: (§1) The Shc PTB domain (17 – 207) containing the pET15b vector was transformed into a Rosetta (DE3) cell line to pursue optimal expression levels. SH2 domain (380 – 473) was cloned into NdeI and XhoI sites in pET21b vector and then transformed into a BL21 (DE3) cell line. The vector of pET28a-full length Shc (1 – 473), generously provided by Dr. Ladbury (University of Texas MD Anderson Cancer Center, TX), was expressed in a BL21 (DE3) cell line as well. Typically, 10 ml overnight culture was used to inoculate 1 liter LB broth. Cells were grown at 37°C until OD600 reached 0.6. At this point the culture was cooled to room temperature and then the overnight overexpression was induced by 1 mM isopropyl-β-D-thiogalactopyranoside. Harvested cells were kept at −20°C for future purification or resuspended in lysis buffer supplemented with protease inhibitors. Cells were further lysed by french press and the cell debris was removed by centrifugation at 18,000 rpm at 4°C. […] The overexpression of the target protein and the purified protein were confirmed by SDS-PAGE and the bands of the expected mass were observed. […]
(§2) Calorimetric measurements of a full length Shc, PTB domain, and SH2 domain to β3 phosphopeptides or PtdIns were performed on a low volume Nano ITC (TA Instruments). […] The concentration of protein samples was determined by UV measurements. […]

[2] = tested on: Shc SH2 domain (380 – 473); assay: ITC (and other) binding to Shc SH2 domain; conditions: 12°C and 25°C
Description: as §1, §2

[3] = target: T2, Shc PTB domain (17 – 207) (Homo sapiens, UniProt P29353); assay: ITC binding to Shc PTB domain; conditions: Shc PTB domain, 12°C and 25°C, several buffers incl. 50 mM Tris pH 8.0, 200 mM NaCl, 1 mM Dithiothreitol
T2 construct: The Shc PTB domain (17 – 207) containing the pET15b vector was transformed into a Rosetta (DE3) cell line; His-tag (N); made in house; host or cells: E. coli Rosetta (DE3), pET15b
T2 sequence (P29353 17-207 isoform P29353-2): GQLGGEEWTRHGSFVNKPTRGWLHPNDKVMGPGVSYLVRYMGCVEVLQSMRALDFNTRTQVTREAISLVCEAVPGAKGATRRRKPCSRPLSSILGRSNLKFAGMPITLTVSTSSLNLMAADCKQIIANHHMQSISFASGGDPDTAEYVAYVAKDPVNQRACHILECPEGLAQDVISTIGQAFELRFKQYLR
Description: The Shc PTB domain (17 – 207) containing the pET15b vector was transformed into a Rosetta (DE3) cell line to pursue optimal expression levels. SH2 domain (380 – 473) was cloned into NdeI and XhoI sites in pET21b vector and then transformed into a BL21 (DE3) cell line. The vector of pET28a-full length Shc (1 – 473), generously provided by Dr. Ladbury (University of Texas MD Anderson Cancer Center, TX), was expressed in a BL21 (DE3) cell line as well. Typically, 10 ml overnight culture was used to inoculate 1 liter LB broth. Cells were grown at 37°C until OD600 reached 0.6. At this point the culture was cooled to room temperature and then the overnight overexpression was induced by 1 mM isopropyl-β-D-thiogalactopyranoside. Harvested cells were kept at −20°C for future purification or resuspended in lysis buffer supplemented with protease inhibitors. Cells were further lysed by french press and the cell debris was removed by centrifugation at 18,000 rpm at 4°C. […] The overexpression of the target protein and the purified protein were confirmed by SDS-PAGE and the bands of the expected mass were observed. The determination of protein concentration by UV measurement was consistent with Bradford assay.
Calorimetric measurements of a full length Shc, PTB domain, and SH2 domain to β3 phosphopeptides or PtdIns were performed on a low volume Nano ITC (TA Instruments). All experiments were carried out in a buffer of 50 mM Tris, pH 7.5, 100 mM NaCl, 5 mM β-mercaptoethanol (unless described otherwise) at 12°C or 25°C with a stirring speed of 250 rpm to minimize the precipitation of the protein. 300 second time intervals were set between injections. The concentration of protein samples was determined by UV measurements. The titrants (β3 phosphopeptides or PtdIns) were prepared in the same buffer by the dilution of higher concentration stocks. The concentrations of the protein ranged from 30 μM to 150 μM. The concentration of protein was examined after each ITC experiment by UV to ensure the stability of proteins under the test condition. The analysis of the data was done with Nano Analyze Software (TA Instruments) suite using an “independent” model.

[4] = target: T3, full length Shc (1 – 473) (UniProt P29353-2 1-473); assay: ITC; Nano ITC; β3 phosphopeptide titrated into the Shc protein over-saturated by Ins(1,4,5)P3 at 3 to 1 lipid to protein ratio; 12°C; conditions: both partners purified
T3 construct: Shc adaptor protein, full length 1-473 (printed length 473 residues, the p52 isoform), from a pET28a vector provided by Dr. Ladbury; numbers count on: the p52 isoform; Monomeric on Superdex-75; also called Shc full length; p52 Shc; source: E. coli BL21 (DE3), purified (Ni-NTA, Superdex-75)
T3 sequence (looked up): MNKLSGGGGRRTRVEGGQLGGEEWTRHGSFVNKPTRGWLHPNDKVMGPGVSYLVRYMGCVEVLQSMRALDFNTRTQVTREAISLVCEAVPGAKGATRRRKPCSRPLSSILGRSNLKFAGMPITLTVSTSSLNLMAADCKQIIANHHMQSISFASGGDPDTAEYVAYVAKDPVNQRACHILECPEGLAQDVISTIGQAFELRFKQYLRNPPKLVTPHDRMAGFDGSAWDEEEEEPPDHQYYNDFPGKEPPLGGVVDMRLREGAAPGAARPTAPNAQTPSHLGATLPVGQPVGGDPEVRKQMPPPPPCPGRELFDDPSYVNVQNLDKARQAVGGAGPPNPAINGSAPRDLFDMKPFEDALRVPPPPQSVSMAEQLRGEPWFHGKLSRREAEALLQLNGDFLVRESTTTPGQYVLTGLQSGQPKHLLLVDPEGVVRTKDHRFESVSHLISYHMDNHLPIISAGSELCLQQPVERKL

[5] = target: T4, Shc PTB domain (17 – 207) (UniProt P29353-2 17-207); assay: as above; conditions: both partners purified
T4 construct: Shc adaptor protein (p52 isoform), PTB domain, residues 17-207, from a pET15b vector; numbers count on: the p52 isoform (full length 1-473); 15N-labelled (M9 medium with 15NH4Cl) for the NMR experiments; Monomeric on Superdex-75; also called apo PTB domain; source: E. coli Rosetta (DE3), purified (Ni-NTA, Superdex-75)
T4 sequence (looked up): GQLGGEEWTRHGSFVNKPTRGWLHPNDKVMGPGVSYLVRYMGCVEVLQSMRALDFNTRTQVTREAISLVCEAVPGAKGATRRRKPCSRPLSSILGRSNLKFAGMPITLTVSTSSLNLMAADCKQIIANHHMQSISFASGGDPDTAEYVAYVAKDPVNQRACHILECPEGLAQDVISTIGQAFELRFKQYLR

[6] = target: T3, full length Shc (1 – 473); assay: ITC; Nano ITC; β3 phosphopeptide titrated into the Shc protein (30-150 μM); 25°C; 50 mM Tris, pH 7.5, 100 mM NaCl, 5 mM β-mercaptoethanol; independent model; conditions: both partners purified
[7] = target: T4, Shc PTB domain (17 – 207); assay: as above; conditions: both partners purified
[8] = target: T3, full length Shc (1 – 473); assay: as above; conditions: both partners purified; remark: listed apart in the source
[9] = target: T4, Shc PTB domain (17 – 207); assay: as above; conditions: both partners purified; remark: listed apart in the source
[10] = target: T3, full length Shc (1 – 473); assay: ITC; Nano ITC; β3 phosphopeptide titrated into the Shc protein (30-150 μM); 12°C; 50 mM Tris, pH 7.5, 100 mM NaCl, 5 mM β-mercaptoethanol; independent model; conditions: both partners purified
[11] = target: T4, Shc PTB domain (17 – 207); assay: as above; conditions: both partners purified
[12] = target: T4, Shc PTB domain (17 – 207); assay: as above; conditions: both partners purified; remark: listed apart in the source

Molecule: O=P(O)(O)O[C@@H]1[C@H](O)[C@H](O)[C@@H](OP(=O)(O)O)[C@H](OP(=O)(O)O)[C@H]1O [Ins(1,4,5)P3, D-myo-Inositol-1,4,5-triphosphate]
- 15N-HSQC chemical shift perturbations (apo Shc PTB domain): minimal chemical shift perturbations for a handful of residues; also recorded: less pronounced compared to PtdIns(4,5)P2
- Kd (full length Shc; 50 mM Tris, pH 8.0, 200 mM NaCl, 1 mM Dithiothreitol): 0.7 µM
- relative binding strength (full length Shc): much tighter than the binding of the isolated Shc PTB domain alone to PtdIns(4,5)P2
- binding by ITC [1]: No binding was found; also recorded: does not
- binding by ITC [2]: No binding was found; also recorded: does not show to bind
- binding by ITC [3]: No binding was found; also recorded: minimal Shc PTB binding; also recorded: does not show to bind

- Kd [4]: 4.38 µM
- dH [4]: -3.32 kcal/mol
- Kd [5]: 3.65 µM
- dH [5]: -2.96 kcal/mol
- Kd [6]: 2.84 µM
- dH [6]: -6.89 kcal/mol
- Kd [7]: 5.14 µM
- dH [7]: -5.49 kcal/mol
- stoichiometry N [8]: 1 ± 0.15
- stoichiometry N [9]: ~1
- Kd [10]: 5.21 µM
- dH [10]: -3.89 kcal/mol
- Kd [11]: 4.32 µM
- dH [11]: -2.75 kcal/mol
- stoichiometry N [12]: 1 ± 0.15
B1: bi-β3: β3 integrin derived bi-phosphorylated (Y747 and Y759) peptide (peptide)
peptide: RAKWDTANNPL[pY]KEATSTFTNIT[pY]RGT
notes: integrin β3 cytoplasmic tail, residues 736-762, both tyrosines phosphorylated; also called bi-phosphorylated β3 cytoplasmic tail peptide; source: synthetic peptide (NEO-Peptide)
